According to publication PMC11467669 (The Journal of Biological Chemistry, 2024):
Blank lines part the entries; values can stand above or below the binder they belong to.

What was measured:
[1] = molecular target: mono-ubiquitin with an N-terminal fluorescein moiety (UniProt P0CG47 1-76, fluorescein on the N-terminus); assay: fluorescence polarisation
SEC-MALLS = molecular target: the molecule itself; assay: SEC-MALLS

B2: 14-3-3γ (natural protein, UniProt P61981 1-247, looked up)
chain: MVDREQLVQKARLAEQAERYDDMAAAMKNVTELNEPLSNEERNLLSVAYKNVVGARRSSWRVISSIEQKTSADGNEKKIEMVRAYREKIEKELEAVCQDVLSLLDNYLIKNCSETQYESKVFYLKMKGDYYRYLAEVATGEKRATVVESSEKAYSEAHEISKEHMQPTHPIRLGLALNYSVFYYEIQNAPEQACHLAKTAFDDAIAELDTLNEDSYKDSTLIMQLLRDNLTLWTSDQQDDDGGEGNN
stoichiometry N (SEC-MALLS): 2

B4: full-length USP8 (a.a. 7-1110), non-phosphorylated (enzyme)
chain: VPKELYLSSSLKDLNKKTEVKPEKISTKSYVHSALKIFKTAEECRLDRDEERAYVLYMKYVTVYNLIKKRPDFKQQQDYFHSILGPGNIKKAVEEAERLSESLKLRYEEAEVRKKLEEKDRQEEAQRLQQKRQETGREDGGTLAKGSLENVLDSKDKTQKSNGEKNEKCETKEKGAITAKELYTMMTDKNISLIIMDARRMQDYQDSCILHSLSVPEEAISPGVTASWIEAHLPDDSKDTWKKRGNVEYVVLLDWFSSAKDLQIGTTLRSLKDALFKWESKTVLRNEPLVLEGGYENWLLCYPQYTTNAKVTPPPRRQNEEVSISLDFTYPSLEESIPSKPAAQTPPASIEVDENIELISGQNERMGPLNISTPVEPVAASKSDVSPIIQPVPSIKNVPQIDRTKKPAVKLPEEHRIKSESTNHEQQSPQSGKVIPDRSTKPVVFSPTLMLTDEEKARIHAETALLMEKNKQEKELRERQQEEQKEKLRKEEQEQKAKKKQEAEENEITEKQQKAKEEMEKKESEQAKKEDKETSAKRGKEITGVKRQSKSEHETSDAKKSVEDRGKRCPTPEIQKKSTGDVPHTSVTGDSGSGKPFKIKGQPESGILRTGTFREDTDDTERNKAQREPLTRARSEEMGRIVPGLPSGWAKFLDPITGTFRYYHSPTNTVHMYPPEMAPSSAPPSTPPTHKAKPQIPAERDREPSKLKRSYSSPDITQAIQEEEKRKPTVTPTVNRENKPTCYPKAEISRLSASQIRNLNPVFGGSGPALTGLRNLGNTCYMNSILQCLCNAPHLADYFNRNCYQDDINRSNLLGHKGEVAEEFGIIMKALWTGQYRYISPKDFKITIGKINDQFAGYSQQDSQELLLFLMDGLHEDLNKADNRKRYKEENNDHLDDFKAAEHAWQKHKQLNESIIVALFQGQFKSTVQCLTCHKKSRTFEAFMYLSLPLASTSKCTLQDCLRLFSKEEKLTDNNRFYCSHCRARRDSLKKIEIWKLPPVLLVHLKRFSYDGRWKQKLQTSVDFPLENLDLSQYVIGPKNNLKKYNLFSVSNHYGGLDGGHYTAYCKNAARQRWFKFDDHEVSDISVSSVKSSAAYILFYTSLG
Kd [1]: 1480 nM

Next, values leading:

Kd [1]: 367 nM
B1: USP8 Δ686–757 (FL USP8, a.a. 7-1110, entire WW-CD linker deleted) (enzyme)
chain: VPKELYLSSSLKDLNKKTEVKPEKISTKSYVHSALKIFKTAEECRLDRDEERAYVLYMKYVTVYNLIKKRPDFKQQQDYFHSILGPGNIKKAVEEAERLSESLKLRYEEAEVRKKLEEKDRQEEAQRLQQKRQETGREDGGTLAKGSLENVLDSKDKTQKSNGEKNEKCETKEKGAITAKELYTMMTDKNISLIIMDARRMQDYQDSCILHSLSVPEEAISPGVTASWIEAHLPDDSKDTWKKRGNVEYVVLLDWFSSAKDLQIGTTLRSLKDALFKWESKTVLRNEPLVLEGGYENWLLCYPQYTTNAKVTPPPRRQNEEVSISLDFTYPSLEESIPSKPAAQTPPASIEVDENIELISGQNERMGPLNISTPVEPVAASKSDVSPIIQPVPSIKNVPQIDRTKKPAVKLPEEHRIKSESTNHEQQSPQSGKVIPDRSTKPVVFSPTLMLTDEEKARIHAETALLMEKNKQEKELRERQQEEQKEKLRKEEQEQKAKKKQEAEENEITEKQQKAKEEMEKKESEQAKKEDKETSAKRGKEITGVKRQSKSEHETSDAKKSVEDRGKRCPTPEIQKKSTGDVPHTSVTGDSGSGKPFKIKGQPESGILRTGTFREDTDDTERNKAQREPLTRARSEEMGRIVPGLPSGWAKFLDPITGTFRYYHSPTNTVHMYPPEMAPSASQIRNLNPVFGGSGPALTGLRNLGNTCYMNSILQCLCNAPHLADYFNRNCYQDDINRSNLLGHKGEVAEEFGIIMKALWTGQYRYISPKDFKITIGKINDQFAGYSQQDSQELLLFLMDGLHEDLNKADNRKRYKEENNDHLDDFKAAEHAWQKHKQLNESIIVALFQGQFKSTVQCLTCHKKSRTFEAFMYLSLPLASTSKCTLQDCLRLFSKEEKLTDNNRFYCSHCRARRDSLKKIEIWKLPPVLLVHLKRFSYDGRWKQKLQTSVDFPLENLDLSQYVIGPKNNLKKYNLFSVSNHYGGLDGGHYTAYCKNAARQRWFKFDDHEVSDISVSSVKSSAAYILFYTSLG

Kd [1]: 290 nM
B3: USP8 ΔWW (WW domain-deleted mutant of FL USP8, a.a. 7-1110) (enzyme)
chain: VPKELYLSSSLKDLNKKTEVKPEKISTKSYVHSALKIFKTAEECRLDRDEERAYVLYMKYVTVYNLIKKRPDFKQQQDYFHSILGPGNIKKAVEEAERLSESLKLRYEEAEVRKKLEEKDRQEEAQRLQQKRQETGREDGGTLAKGSLENVLDSKDKTQKSNGEKNEKCETKEKGAITAKELYTMMTDKNISLIIMDARRMQDYQDSCILHSLSVPEEAISPGVTASWIEAHLPDDSKDTWKKRGNVEYVVLLDWFSSAKDLQIGTTLRSLKDALFKWESKTVLRNEPLVLEGGYENWLLCYPQYTTNAKVTPPPRRQNEEVSISLDFTYPSLEESIPSKPAAQTPPASIEVDENIELISGQNERMGPLNISTPVEPVAASKSDVSPIIQPVPSIKNVPQIDRTKKPAVKLPEEHRIKSESTNHEQQSPQSGKVIPDRSTKPVVFSPTLMLTDEEKARIHAETALLMEKNKQEKELRERQQEEQKEKLRKEEQEQKAKKKQEAEENEITEKQQKAKEEMEKKESEQAKKEDKETSAKRGKEITGVKRQSKSEHETSDAKKSVEDRGKRCPTPEIQKKSTGDVPHTSVTGDSGSGKPFKIKGQPESGILRTGTFREDTDDTERNKAQREPLTRARSEEMSSAPPSTPPTHKAKPQIPAERDREPSKLKRSYSSPDITQAIQEEEKRKPTVTPTVNRENKPTCYPKAEISRLSASQIRNLNPVFGGSGPALTGLRNLGNTCYMNSILQCLCNAPHLADYFNRNCYQDDINRSNLLGHKGEVAEEFGIIMKALWTGQYRYISPKDFKITIGKINDQFAGYSQQDSQELLLFLMDGLHEDLNKADNRKRYKEENNDHLDDFKAAEHAWQKHKQLNESIIVALFQGQFKSTVQCLTCHKKSRTFEAFMYLSLPLASTSKCTLQDCLRLFSKEEKLTDNNRFYCSHCRARRDSLKKIEIWKLPPVLLVHLKRFSYDGRWKQKLQTSVDFPLENLDLSQYVIGPKNNLKKYNLFSVSNHYGGLDGGHYTAYCKNAARQRWFKFDDHEVSDISVSSVKSSAAYILFYTSLG
